The nature of assay [1]: Purified pMT7/pMT10 reaction with auxiliary enzymes mtn and mtaD. Conditions: 20 μM SAH introduced in the purified enzymatic reaction. In kind it is biochemical. The source says: All the purified enzyme reactions were done in triplicates.
An alternative strategy to reduce SAH inhibition is to introduce auxiliary enzymes that degrade SAH12 (FIG. 18a). […] Noteworthy, with mtaD enzyme, cis-α-irone production by pMT10 was improved by ˜2.5 fold as compared to pMT10 reaction alone (FIG. 3c). […] This somewhat agrees with the effect of mutating D135, which abolishes the hydrogen bond interaction between pMT7 and the amine group of the adenine moiety.

Assay [2] is described as follows: Cell lysate reaction of pMT enzymes with psi-ionone, irones quantified by HS-SPME-GCMS. Type of assay: biochemical. The settings on record: for fold change in cis-α-irone produced: AUC vs non-mutated (=1). Summed up: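 pMT1 site-saturation mutants were expressed in E. coli BL21(DE3) and lysed, and lysates were incubated 2 days at 28 °C with 0.2 mM SAM and 10 mg/L psi-ionone (plus caryophyllene) in 50 mM Tris pH 7, 10 mM MgCl2. Cis-α-irone was measured by HS-SPME-GCMS peak area and given as fold change over non-mutated enzyme.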

Assay [3] in a line: In vivo cis-α-irone production from glucose/glycerol in strain 2O31 cultures. In kind it is cell-based, Escherichia coli. The settings on record: pMT plasmid transformed into strain 2O31; 2 days. The source says: The advantage of in vivo biotransformation is that microbial cells can regenerate expensive co-factors rendering the scale-up bioprocess more cost-effective. […] Thus, pMT was incorporated into our psi-ionone producing microbe^7,8, to synthesize cis-α-irone from cheap renewable carbon sources (glucose/glycerol) (FIG. 4 and FIG. 19). To achieve high productivity, the psi-ionone production was first optimized by multidimensional heuristic process (MHP)^15, and strain 2O31 was identified to be the highest producer for psi-ionone (FIG. 19b). 2O31 was used as the base strain to probe cis-α-irone production in vivo (Table 5). Moreover, to improve the plasmid stability, auxotrophic strain was used with chemically defined media^1. The plasmid carrying pMT1, pMT7 or pMT10 was transformed into the strain 2O31, and produced less than 0.01, about 2 and about 3 mg/L cis-α-irone respectively in 2 days (FIG. 19d). To further optimize irone production with pMT10, three different culture conditions were tested: no methionine or dodecane added (control); 10 mM methionine added; 10 mM methionine and 20% dodecane added. In the control reaction, approximately 4.8 mg/L or 0.85 mg/L/OD cis-α-irone was produced after 3-day incubation (2O31-pMT10, FIGS. 4c and 4e). […] Lastly, when both methionine and dodecane were added, psi-ionone was accumulated in the organic layer and only ˜0.3 mg/L or ˜0.05 mg/L/OD cis-α-irone was produced (2O31-pMT10, FIGS. 4c, d and e). […] The limited methylation efficiency might be due to insufficient cofactor or SAH inhibition. […] In fact, the total amount of psi-ionone and cis-α-irone decreased (FIG. 4c, and d). As SAM biosynthesis is regulated by metJ in E. coli^16,17, the aforementioned six reactions were subsequently examined under metJ deleted genetic background (2O31, ΔmetJ). An increase in cis-α-irone titer to ˜5.7 mg/L was produced by 2O31 ΔmetJ-pMT10 strain with 10 mM methionine supplementation (FIG. 4c). An increase in specific cis-α-irone titer to ˜1.2 mg/L/OD was produced by 2O31 ΔmetJ-pMT10r strain without methionine supplementation (FIG. 4d). […]

B1: mtaD: 5-methylthioadenosine/S-adenosylhomocysteine deaminase, auxiliary enzyme deaminating SAH (protein, UniProt Q9X034 1-406, looked up)
5-methylthioadenosine/S-adenos …: MIIGNCLILKDFSSEPFWGAVEIENGTIKRVLQGEVKVDLDLSGKLVMPALFNTHTHAPMTLLRGVAEDLSFEEWLFSKVLPIEDRLTEKMAYYGTILAQMEMARHGIAGFVDMYFHEEWIAKAVRDFGMRALLTRGLVDSNGDDGGRLEENLKLYNEWNGFEGRIFVGFGPHSPYLCSEEYLKRVFDTAKSLNAPVTIHLYETSKEEYDLEDILNIGLKEVKTIAAHCVHLPERYFGVLKDIPFFVSHNPASNLKLGNGIAPVQRMIEHGMKVTLGTDGAASNNSLNLFFEMRLASLLQKAQNPRNLDVNTCLKMVTYDGAQAMGFKSGKIEEGWNADLVVIDLDLPEMFPVQNIKNHLVHAFSGEVFATMVAGKWIYFDGEYPTIDSEEVKRELARIEKELYSS
Turning to B1, the “effect of supplementary auxiliary enzyme on pMT7 and pMT10 activity” value in assay [1] was “restored pMT7 and pMT10 activity”.

B2: pMT1: wild-type bifunctional methyltransferase and cyclase TleD from Streptomyces blastmyceticus (protein, listed as Streptomyces blastmyceticus)
chain: MPQEARTPQQQVTADEVGDWYDKFGEVYHLTLGESVHCGLWFPPDAPVPQDMELVTMSSQAQDRYTDYLIETLDPKAGQHLLDIGCGTGRTALKAARQRGIAVTGVAVSKEQIAAANRLAAGHGLTERLTFEVADAMRLPYEDESFDCAWAIESLCHMDRAKALGEAWRVLKPGGDLLVLESVVTEELTEPETALFETLYAANVPPRLGEFFDIVSGAGFHTLSLKDLSANLAMTMNVFALGVYSRRAEFTERFGAEFVDGLLAGLGSAQETLIRKTRFFMATLRKPAV
Take B2: the “cis-α-irone content (percentage of cis-α-irone in the irone mixture)” value in assay [2] (cell extracts with psi-ionone) was determined as 21%. The “trans-α-irones detected (share of irones)” value in assay [2] (cell extracts with psi-ionone) came to 79%. The “fold change in cis-α-irone produced” value in assay [2] (pMT1_E153 mutants), in assay [2] (pMT1_M236 mutants), in assay [2] (pMT1_R160 mutants), in assay [2] (pMT1_S182 mutants) and in assay [2] (pMT1_Y200 mutants) was 1.0 each time. Moreover, in assay [3], the cis-α-irone produced entry is “less than 0.01 mg/L”.

B3: mtn: 5′-methylthioadenosine/S-adenosylhomocysteine nucleosidase, auxiliary enzyme hydrolysing SAH (protein, UniProt P0AF12 1-232, looked up)
5'-methylthioadenosine/S-adeno …: MKIGIIGAMEEEVTLLRDKIENRQTISLGGCEIYTGQLNGTEVALLKSGIGKVAAALGATLLLEHCKPDVIINTGSAGGLAPTLKVGDIVVSDEARYHDADVTAFGYEYGQLPGCPAGFKADDKLIAAAEACIAELNLNAVRGLIVSGDAFINGSVGLAKIRHNFPQAIAVEMEATAIAHVCHNFNVPFVVVRAISDVADQQSHLSFDEFLAVAAKQSSLMVESLVQKLAHG
Turning to B3, the “effect of supplementary auxiliary enzyme on pMT7 and pMT10 activity” value in assay [1] was “restored pMT7 and pMT10 activity”.

(Values after patent US20240240209A1, “SYNTHESIS OF ENANTIOPURE CIS-A-IRONE FROM A RENEWABLE CARBON SOURCE” (Agency for Science, Technology and Research, priority 2021, published 2024).)
